Earlier results on one substance are cited in patent publication US8901073B2, “Compounds and their effects on feeding behaviour” (Imperial Innovations Limited, priority 2011, dated 2014).

For this data set the following is noted: endogenous PYY in circulation; cited from earlier work.

As to “endogenous PYY: peptide YY polypeptide, a hormone secreted into the blood by cells lining the lower small intestine and the colon”, the half life result is “several minutes”.
